Key:
Assay in all cases: SPR ProteOn, SA immobilized, pH 7.4
[1] = molecular target: T1, mouse serum albumin (Albumin Bioscience 2601) (mouse, UniProt P07724 25-608)
T1 construct: Bought protein; also called mouse SA

[2] = molecular target: T2, pig serum albumin (Sigma-Aldrich A4414) (pig, UniProt P08835 25-607)
T2 construct: Bought protein; also called pig SA

[3] = molecular target: T3, cynomolgus monkey serum albumin (generated in-house) (cynomolgus monkey, UniProt A2V9Z4 25-608, limits assumed)
T3 construct: also called cyno SA

[4] = molecular target: T4, rat serum albumin (Sigma-Aldrich A4538) (rat, UniProt P02770 25-608)
T4 construct: Bought protein; also called rat SA

[5] = molecular target: T5, guinea pig serum albumin (Gentaur GPSA62) (guinea pig)
T5 construct: Bought protein; also called guinea pig SA

[6] = molecular target: T6, dog serum albumin (Abcam 119814) (dog, UniProt P49822 25-608)
T6 construct: Bought protein; also called dog SA

[7] = molecular target: T7, human serum albumin (Sigma-Aldrich A3782) (human, UniProt P02768 25-609)
T7 construct: Bought protein; also called HSA; human SA

koff [1]: 0.00025 s⁻¹
kon [1]: 910000 M⁻¹ s⁻¹
koff [2]: 0.0046 s⁻¹
kon [2]: 100000 M⁻¹ s⁻¹
koff [3]: 0.00023 s⁻¹
kon [3]: 520000 M⁻¹ s⁻¹
koff [4]: 8e-05 s⁻¹
kon [4]: 1.2e+06 M⁻¹ s⁻¹
Kd [5]: 0.3 nM
koff [5]: 0.00031 s⁻¹
kon [5]: 1e+06 M⁻¹ s⁻¹
koff [6]: 0.00084 s⁻¹
kon [6]: 720000 M⁻¹ s⁻¹
koff [7]: 0.00027 s⁻¹
kon [7]: 610000 M⁻¹ s⁻¹
B1: serum albumin binder of SEQ ID NO:19 (invention), T023500029 (VHH)
VHH: EVQLVESGGGVVQPGDSLRLSCAASGGTFSTYVMGWFRQAPGKEREFVSAISQNSIHTYYANSVKGRFTISRDNSKNTVYLQLNSLRPEDTALYYCAASRFTSWYTADYEYDYWGQGTLVTVSS
notes: No tag is mentioned there

— patent publication US20230060574A1 (Ablynx, published 2023)
